{
  "source": "patent US20150031617A1",
  "about": "“USE OF THYMOSIN ALPHA FOR TREATMENT OF PURULENT RHINOSINUSITIS” (SCICLONE PHARMACEUTICALS, INC., priority 2012, published 2015)",
  "key": {"[1]": {"tested_on": "monocytes and granulocytes of patients with purulent rhinosinusitis", "assay": "monocyte and granulocyte polarization in vitro in patients with purulent rhinosinusitis", "format": "cell-based, human", "settings": "10 patients; thymalfasin, 0.1 mg/ml; FIG. 1", "description": "The results in 10 patients were evaluated. The monocyte and granulocyte polarizations in 10 patients were evaluated. Initially, 3 to 4 of the patients started with decreased polarization. […] (See, FIG. 1.) As a control, N-formylmethionyl-leucyl-phenylalanine (fMLP)-induced polarization of healthy donor monocytes. (See, FIG. 2.) Concentrations were TP-1, 1 mg/ml, thymalfasin, 0.1 mg/ml and fMLP, 10^−8M."}, "[2]": {"settings": "cited from earlier work"}},
  "data": [
    {"substance": "(N-acetyl)-Ser-Asp-Ala-Ala-Val-Asp-Thr-Ser-Ser-Glu-Ile-Thr-Thr-Lys-Asp-Leu-Lys-Glu-Lys-Lys-Glu-Val-Val-Glu-Glu-Ala-Glu-Asn-OH (Ac-SDAAVDTSSEITTKDLKEKKEVVEEAEN-OH) [TA1]", "values": [
      {"measurement": "monocyte and granulocyte polarization in vitro", "setting": "[1]", "result": "worked excellently in improving and restoring the polarization in vitro"},
      {"measurement": "Peak plasma levels", "setting": "[2]; after injection of 3.2 mg of TA1 (about 40 μg/kg)", "result": "approximately 100 ng/ml"},
      {"measurement": "TA1 circulating in serum", "setting": "[2]; circulating serum level", "result": "0.1 to 1.0", "unit": "ng/mL"},
      {"measurement": "half-life in the circulation", "setting": "[2]; in the circulation", "result": "about 2 hours"}
    ]}
  ]
}
